# Measurements from article PMC11297322, “MEILB2-BRME1 forms a V-shaped DNA clamp upon BRCA2-binding in meiotic recombination” (Nature Communications, 2023).
# T1: BRCA2MBD;MEILB2 (22-338);BRME1MBD (Mus musculus;Mus musculus;Mus musculus) (UniProt P97929+Q9D4G2+Q6DIA7)
# T1 sequence 1: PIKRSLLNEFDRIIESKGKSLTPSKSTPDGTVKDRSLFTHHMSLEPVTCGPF
# T1 sequence 2: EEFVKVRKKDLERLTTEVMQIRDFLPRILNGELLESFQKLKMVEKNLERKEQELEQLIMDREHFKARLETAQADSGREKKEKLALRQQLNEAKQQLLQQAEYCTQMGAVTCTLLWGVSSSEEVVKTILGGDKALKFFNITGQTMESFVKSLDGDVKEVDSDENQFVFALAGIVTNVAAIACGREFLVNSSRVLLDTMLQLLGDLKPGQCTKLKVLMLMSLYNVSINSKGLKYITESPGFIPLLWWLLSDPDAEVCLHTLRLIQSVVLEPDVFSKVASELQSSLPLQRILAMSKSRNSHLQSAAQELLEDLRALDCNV
# T1 sequence 3: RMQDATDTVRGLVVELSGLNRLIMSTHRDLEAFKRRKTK
# T2: BRCA2MBD;MEILB2 K26E;BRME1MBD K26E (Mus musculus;Mus musculus;Mus musculus) (UniProt P97929+Q9D4G2+Q6DIA7)
# T2 sequence 1: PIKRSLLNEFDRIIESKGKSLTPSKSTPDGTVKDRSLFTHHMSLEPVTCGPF
# T2 sequence 2: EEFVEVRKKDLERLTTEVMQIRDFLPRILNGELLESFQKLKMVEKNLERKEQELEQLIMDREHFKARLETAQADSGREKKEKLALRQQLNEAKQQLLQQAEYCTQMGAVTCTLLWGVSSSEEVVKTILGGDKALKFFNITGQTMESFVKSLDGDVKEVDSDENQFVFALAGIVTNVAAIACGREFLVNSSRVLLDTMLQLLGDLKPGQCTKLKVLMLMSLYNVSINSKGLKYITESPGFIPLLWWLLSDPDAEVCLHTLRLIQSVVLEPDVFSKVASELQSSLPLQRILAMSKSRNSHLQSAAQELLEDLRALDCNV
# T2 sequence 3: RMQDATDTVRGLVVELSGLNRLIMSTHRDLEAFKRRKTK
# T3: BRCA2MBD;MEILB2 (22-338);BRME1MBD (Mus musculus;Mus musculus;Mus musculus, UniProt P97929;Q9D4G2;Q6DIA7 2232-2283;22-338;540-578, ||)
# T3 sequence 1: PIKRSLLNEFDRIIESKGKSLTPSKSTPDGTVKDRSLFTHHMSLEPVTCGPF
# T3 sequence 2: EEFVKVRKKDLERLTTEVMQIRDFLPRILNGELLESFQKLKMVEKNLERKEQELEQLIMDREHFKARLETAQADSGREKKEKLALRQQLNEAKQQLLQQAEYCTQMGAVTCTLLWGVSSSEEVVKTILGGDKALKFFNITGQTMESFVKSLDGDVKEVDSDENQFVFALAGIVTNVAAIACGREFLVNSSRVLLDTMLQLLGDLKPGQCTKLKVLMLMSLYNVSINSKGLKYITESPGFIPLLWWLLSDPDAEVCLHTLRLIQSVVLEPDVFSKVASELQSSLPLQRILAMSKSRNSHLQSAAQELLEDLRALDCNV
# T3 sequence 3: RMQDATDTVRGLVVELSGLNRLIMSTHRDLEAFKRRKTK
# T4: MEILB2 (22-338);BRME1MBD (Mus musculus;Mus musculus, UniProt Q9D4G2;Q6DIA7 22-338;540-578, |)
# T4 sequence 1: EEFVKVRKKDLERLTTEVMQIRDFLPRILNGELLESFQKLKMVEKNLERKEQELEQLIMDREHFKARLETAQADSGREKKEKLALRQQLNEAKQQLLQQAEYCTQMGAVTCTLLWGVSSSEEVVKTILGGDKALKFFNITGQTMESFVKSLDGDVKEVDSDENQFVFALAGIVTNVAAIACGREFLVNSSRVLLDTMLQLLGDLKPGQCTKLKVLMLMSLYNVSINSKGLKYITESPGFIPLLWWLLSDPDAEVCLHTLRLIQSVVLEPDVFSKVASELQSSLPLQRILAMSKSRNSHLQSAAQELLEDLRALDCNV
# T4 sequence 2: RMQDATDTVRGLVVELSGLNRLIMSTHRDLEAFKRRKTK
# T5: BRCA2MBD;MEILB2 K26E;BRME1MBD (Mus musculus;Mus musculus;Mus musculus, UniProt P97929;Q9D4G2;Q6DIA7 2232-2283;22-338;540-578, |K26E|)
# T5 sequence 1: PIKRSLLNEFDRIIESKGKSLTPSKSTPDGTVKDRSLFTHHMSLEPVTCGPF
# T5 sequence 2: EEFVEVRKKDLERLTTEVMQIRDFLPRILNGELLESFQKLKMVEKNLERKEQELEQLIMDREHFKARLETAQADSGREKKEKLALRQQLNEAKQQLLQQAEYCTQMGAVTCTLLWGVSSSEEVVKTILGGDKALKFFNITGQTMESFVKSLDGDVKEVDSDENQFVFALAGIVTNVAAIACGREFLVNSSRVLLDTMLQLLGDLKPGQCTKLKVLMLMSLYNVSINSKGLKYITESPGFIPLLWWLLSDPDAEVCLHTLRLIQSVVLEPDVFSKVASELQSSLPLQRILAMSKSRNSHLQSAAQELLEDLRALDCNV
# T5 sequence 3: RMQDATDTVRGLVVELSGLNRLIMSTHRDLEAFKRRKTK
# T6: MEILB2 (22-338);BRME1MBD R540E R549E (Mus musculus;Mus musculus, UniProt Q9D4G2;Q6DIA7 22-338;540-578, |R540E;R549E)
# T6 sequence 1: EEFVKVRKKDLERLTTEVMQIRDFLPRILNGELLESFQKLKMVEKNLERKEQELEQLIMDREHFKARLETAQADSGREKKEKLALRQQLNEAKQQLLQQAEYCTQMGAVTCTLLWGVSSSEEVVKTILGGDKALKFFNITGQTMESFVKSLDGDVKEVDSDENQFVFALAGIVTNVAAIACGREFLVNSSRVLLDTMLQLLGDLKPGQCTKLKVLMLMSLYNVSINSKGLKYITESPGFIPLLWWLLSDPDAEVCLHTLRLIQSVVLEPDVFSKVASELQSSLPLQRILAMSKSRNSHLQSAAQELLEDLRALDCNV
# T6 sequence 2: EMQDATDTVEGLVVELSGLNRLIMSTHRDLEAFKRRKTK
# What was measured:
# [1] = molecular target: T1, BRCA2MBD;MEILB2 (22-338);BRME1MBD (Mus musculus;Mus musculus;Mus musculus); experiment: EMSA; details: EMSA: 20 mM HEPES pH 7.5, 325 mM KCl, 60 min room temperature; 0.4% agarose, 0.5x TBE pH 8.0, 4 C; 50 uM DNA per bp/base (qualitative). Pulldown: 20 mM HEPES …
# [2] = molecular target: T2, BRCA2MBD;MEILB2 K26E;BRME1MBD K26E (Mus musculus;Mus musculus;Mus musculus); experiment: EMSA; details: EMSA: 20 mM HEPES pH 7.5, 325 mM KCl, 60 min room temperature; 0.4% agarose, 0.5x TBE pH 8.0, 4 C; 50 uM DNA per bp/base (qualitative). Pulldown: 20 mM HEPES …
# [3] = molecular target: T3, BRCA2MBD;MEILB2 (22-338);BRME1MBD; experiment: EMSA; apparent Kd, Hill n = 4; 2:4:4 complex; 50 nM DNA; EMSA: 20 mM HEPES pH 7.5, 325 mM KCl, 60 min room temperature; 0.4% agarose, 0.5x TBE pH 8.0, 4 C; 50 uM DNA per bp/base (qualitative). Pulldown: 20 mM HEPES pH 7.5, 150 mM KCl, 10% glycerol, room temperature; details: protein: recombinant;recombinant;recombinant, tags: MBP tag, TEV-cleaved;His6-MBP tag, chain copies: 2;4;4, label: FAM, blunt
# MEILB2 (22-338);BRME1MBD [4] = molecular target: T4, MEILB2 (22-338);BRME1MBD; experiment: EMSA; apparent Kd, Hill n = 3; 2:2 complex concentration; 50 nM DNA; EMSA: 20 mM HEPES pH 7.5, 325 mM KCl, 60 min room temperature; 0.4% agarose, 0.5x TBE pH 8.0, 4 C; 50 uM DNA per bp/base (qualitative). Pulldown: 20 mM HEPES pH 7.5, 150 mM KCl, 10% glycerol, room temperature; details: protein: recombinant;recombinant, tags: His6-MBP tag, TEV-cleaved;His6 tag, chain copies: 2;2, label: FAM, blunt
# [5] = molecular target: T3, BRCA2MBD;MEILB2 (22-338);BRME1MBD; experiment: EMSA; EMSA: 20 mM HEPES pH 7.5, 325 mM KCl, 60 min room temperature; 0.4% agarose, 0.5x TBE pH 8.0, 4 C; 50 uM DNA per bp/base (qualitative). Pulldown: 20 mM HEPES pH 7.5, 150 mM KCl, 10% glycerol, room temperature; details: protein: recombinant;recombinant;recombinant, tags: MBP tag, TEV-cleaved;His6-MBP tag
# MEILB2 (22-338);BRME1MBD [6] = molecular target: T4, MEILB2 (22-338);BRME1MBD; experiment: EMSA; apparent Kd, Hill n = 2; 2:2 complex concentration; 100 nM DNA; EMSA: 20 mM HEPES pH 7.5, 325 mM KCl, 60 min room temperature; 0.4% agarose, 0.5x TBE pH 8.0, 4 C; 50 uM DNA per bp/base (qualitative). Pulldown: 20 mM HEPES pH 7.5, 150 mM KCl, 10% glycerol, room temperature; details: protein: recombinant;recombinant, tags: His6-MBP tag, TEV-cleaved;His6 tag, chain copies: 2;2, label: 5'-FAM
# [7] = molecular target: T5, BRCA2MBD;MEILB2 K26E;BRME1MBD; experiment: EMSA; EMSA: 20 mM HEPES pH 7.5, 325 mM KCl, 60 min room temperature; 0.4% agarose, 0.5x TBE pH 8.0, 4 C; 50 uM DNA per bp/base (qualitative). Pulldown: 20 mM HEPES pH 7.5, 150 mM KCl, 10% glycerol, room temperature; details: protein: recombinant;recombinant;recombinant, tags: MBP tag, TEV-cleaved;His6-MBP tag, chain copies: 2;4;4, blunt
# MEILB2 (22-338);BRME1MBD [8] = molecular target: T4, MEILB2 (22-338);BRME1MBD; experiment: as above; details: protein: recombinant;recombinant, tags: His6-MBP tag, TEV-cleaved;His6 tag, chain copies: 2;2, hairpin with 3' poly(dT) overhang
# [9] = molecular target: T6, MEILB2 (22-338);BRME1MBD R540E R549E; experiment: pull-down; 150 mM KCl; EMSA: 20 mM HEPES pH 7.5, 325 mM KCl, 60 min room temperature; 0.4% agarose, 0.5x TBE pH 8.0, 4 C; 50 uM DNA per bp/base (qualitative). Pulldown: 20 mM HEPES pH 7.5, 150 mM KCl, 10% glycerol, room temperature; details: protein: recombinant;recombinant, tags: His6-MBP tag, TEV-cleaved;His6 tag, chain copies: 2;2, blunt
molecule,measurement,setting,value
ATGGAATCTAAAGAAGAATTTGTTAAAGTCAGAAAGAAGGACCTGGAACGGCTGACGACGGAAGTGATGCAAATACGGGACTTCTTACCCAGAATACTAAATGGGGAGTTACTGGAAAGTTTCCAGAAATTAAAGATGGTAGAAAAAAACCTGGAAAGAAAAGAACAAGAATTAGAGCAACTGATAATGGACCGTGAACACTTCAAAGCCCGGCTAGAAACTGCACAGGCAGACAGTGGGAGGGAGAAGAAGGAGAAGTTGGCTCTTCGACAGCAGCTGAATGAGGCAAAACAGCAGCTC (double strand) [FAM-300 bp dsDNA],Kd,[1],310 nM
same,Kd,[2],300 nM
FAM-75 bp dsDNA (dsDNA) DNA 1: ATGGAATCTAAAGAAGAATTTGTTAAAGTCAGAAAGAAGGACCTGGAACGGCTGACGACGGAAGTGATGCAAATA DNA 2: TATTTGCATCACTTCCGTCGTCAGCCGTTCCAGGTCCTTCTTTCTGACTTTAACAAATTCTTCTTTAGATTCCAT,Kd,[3],400 ± 40 nM
same,Kd,MEILB2 (22-338);BRME1MBD [4],520 ± 60 nM
75 base FAM-poly(dT) (ssDNA) DNA: TTTTTTTTTTTTTTTTTTTTTTTTTTTTTTTTTTTTTTTTTTTTTTTTTTTTTTTTTTTTTTTTTTTTTTTTTTT,binding result,"[5]; chain copies: 2;4;4, label: 5'-FAM",binds
same,Kd,MEILB2 (22-338);BRME1MBD [6],870 ± 70 nM
75 bp dsDNA (dsDNA) DNA 1: ATGGAATCTAAAGAAGAATTTGTTAAAGTCAGAAAGAAGGACCTGGAACGGCTGACGACGGAAGTGATGCAAATA DNA 2: TATTTGCATCACTTCCGTCGTCAGCCGTTCCAGGTCCTTCTTTCTGACTTTAACAAATTCTTCTTTAGATTCCAT,binding result,[7],no binding
ssDNA-dsDNA junction (5' hairpin-poly(dT) 3') (structured_DNA) DNA: CCGGCCCGCGGTGTCCGCGGGCCGGTTTTTTTTTTTTTTTTTTTTTTTTTTTTTTTTTTTTTTTTTTTTTTTTTT,binding result,"[5]; chain copies: 2;4;4, hairpin with 3' poly(dT) overhang",binds
same,binding result,MEILB2 (22-338);BRME1MBD [8],binds
biotin-75 bp dsDNA (dsDNA) DNA 1: ATGGAATCTAAAGAAGAATTTGTTAAAGTCAGAAAGAAGGACCTGGAACGGCTGACGACGGAAGTGATGCAAATA DNA 2: TATTTGCATCACTTCCGTCGTCAGCCGTTCCAGGTCCTTCTTTCTGACTTTAACAAATTCTTCTTTAGATTCCAT,binding result,[9],no binding
